This test has as its target recombinant gst-fused prohibitin [GST: P08515]. The test is described as follows: phage binding to gst-prohibitin immobilized on microtiter plate, 10^9 TU, bound TU counted.

Chain of recombinant gst-fused prohibitin [GST: P08515] (P08515 whole entry, the tested form may be a part): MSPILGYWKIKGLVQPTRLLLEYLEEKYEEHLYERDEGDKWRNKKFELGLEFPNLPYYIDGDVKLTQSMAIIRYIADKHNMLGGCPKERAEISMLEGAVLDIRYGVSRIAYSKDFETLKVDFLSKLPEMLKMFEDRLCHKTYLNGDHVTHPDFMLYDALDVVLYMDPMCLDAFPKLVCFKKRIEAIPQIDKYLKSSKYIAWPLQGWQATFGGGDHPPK

B1: … (SEQ ID NO:4)-displaying phage (peptide, not shown: large carriers)
peptide: CKGGRAKDC
modifications: not checked
With B1, the fold binding relative to control insertless phage was found to be 8 fold.

The values are drawn from patent US20050191294A1, “Compositions and methods of use of targeting peptides for diagnosis and therapy” (Board of Regents, The University of Texas System, priority 2003, published 2005).
